To fix the notation:
B1: library; numbered along this chain (parent)
chain: MNIQIGELAKRTACPVVTIRFYEQEGLLPPPGRSRGNFRLYGEEHVERLQFIRHCRSLDMPLSDVRTLLSYRKRPDQDCGEVNMLLDEHIRQVESRIGALLELKHHLVELREACSGARPAQSCGILQGLSDCVCDTRGTTAHPSD

In data set [1] the parent is B1. In words: sfGFP reporter fluorescence (15 h) (µM FITC); higher = higher leak. As to conditions: library round: Round 0; ligand: none. The procedure:
(§1)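 Cell-free (BL21 Star DE3 extract, PANOx-SP) biosensing: 1 µL Echo-assembled reactions with linear PbrR variant templates (5 nM) and pPbrR-sfGFP reporter, with 1 µM Pb (lead chloride), 30 µM Zn (zinc acetate) or no ligand; endpoint sfGFP fluorescence after 15 h at 30 °C, calibrated as µM FITC. Round 0 library (alanine scan, site saturation, combinatorial) of PbrR from Cupriavidus metallidurans; 2 biological replicates.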

The variants in data set [2] derive from B1. The experiment in a line: sfGFP reporter fluorescence (15 h) (µM FITC); higher = stronger transcriptional activation. The following applies: library round: Round 0. The procedure:
as §1

± gives the standard deviation of the averaged measurements.

Regarding P30W, the sfGFP reporter fluorescence in data set [1] is 0.0634 ± 0.0015; in data set [2] (ligand: 1 µM Pb), 0.0722 ± 0.0031; in data set [2] (ligand: 30 µM Zn), 0.33 ± 0.015.

Take P30H: the figures for the sfGFP reporter fluorescence in data set [1], in data set [2] (ligand: 1 µM Pb) and in data set [2] (ligand: 30 µM Zn) were 0.0618 ± 0.00078, 0.0808 ± 0.0023 and 0.659 ± 0.038, respectively.

Consider P30G, for which the values for the sfGFP reporter fluorescence in data set [1], in data set [2] (ligand: 1 µM Pb) and in data set [2] (ligand: 30 µM Zn) were 0.05699 ± 0.00026, 0.0665 ± 0.0023 and 0.436 ± 0.021, respectively.

Take P30F: the sfGFP reporter fluorescence in data set [1] was determined as 0.0603 ± 0.0018; in data set [2] (ligand: 1 µM Pb), 0.0759 ± 0.001; in data set [2] (ligand: 30 µM Zn), 0.489 ± 0.015.

Consider P30D, for which the results for the sfGFP reporter fluorescence in data set [1], in data set [2] (ligand: 1 µM Pb) and in data set [2] (ligand: 30 µM Zn) were 0.0658 ± 0.0029, 0.08338 ± 0.00026 and 0.391 ± 0.088, respectively.

Consider P30I, for which the results for the sfGFP reporter fluorescence in data set [1], in data set [2] (ligand: 1 µM Pb) and in data set [2] (ligand: 30 µM Zn) were 0.0563 ± 0.0039, 0.0869 ± 0.001 and 0.926 ± 0.2, respectively.

With P30V, the values for the sfGFP reporter fluorescence in data set [1], in data set [2] (ligand: 1 µM Pb) and in data set [2] (ligand: 30 µM Zn) were 0.0619 ± 0.001, 0.0924 ± 0.001 and 1 ± 0.0021, respectively.

Turning to P30C, the sfGFP reporter fluorescence in data set [1] came to 0.0599 ± 0.0023; in data set [2] (ligand: 1 µM Pb), 0.0744 ± 0.0026; in data set [2] (ligand: 30 µM Zn), 0.608 ± 0.025.

Take P30E: the sfGFP reporter fluorescence in data set [1] is 0.0621 ± 0.0013; in data set [2] (ligand: 1 µM Pb), 0.08594 ± 0.00078; in data set [2] (ligand: 30 µM Zn), 0.808 ± 0.075.

In the case of P30S, the results for the sfGFP reporter fluorescence in data set [1], in data set [2] (ligand: 1 µM Pb) and in data set [2] (ligand: 30 µM Zn) were 0.06249 ± 0.00026, 0.0801 ± 0.0039 and 0.651 ± 0.14, respectively.

For the variant P30T, the sfGFP reporter fluorescence came out at 0.06395 ± 0.00026 in data set [1], 0.0887 in data set [2] (ligand: 1 µM Pb) and 0.917 ± 0.17 in data set [2] (ligand: 30 µM Zn).

As to P30K, the sfGFP reporter fluorescence in data set [1] came to 0.0632 ± 0.0029; in data set [2] (ligand: 1 µM Pb) it was 0.0845 ± 0.0013; in data set [2] (ligand: 30 µM Zn), 1.03 ± 0.023.

As for P30Y, the sfGFP reporter fluorescence in data set [1] was found to be 0.0616 ± 0.001; in data set [2] (ligand: 1 µM Pb) it was 0.0771 ± 0.0049; in data set [2] (ligand: 30 µM Zn), 0.612 ± 0.013.

With P30Q, the sfGFP reporter fluorescence worked out at 0.06395 ± 0.00026 in data set [1], 0.0925 ± 0.0039 in data set [2] (ligand: 1 µM Pb) and 1.19 ± 0.066 in data set [2] (ligand: 30 µM Zn).

For P30R, the sfGFP reporter fluorescence in data set [1] was 0.06414 ± 0.00052; in data set [2] (ligand: 1 µM Pb) it was 0.088; in data set [2] (ligand: 30 µM Zn), 1.15 ± 0.039.

Turning to P30M, the sfGFP reporter fluorescence in data set [1] came to 0.06322 ± 0.00026; in data set [2] (ligand: 1 µM Pb), 0.09162 ± 0.00052; in data set [2] (ligand: 30 µM Zn), 0.859 ± 0.079.

Regarding P30A, the sfGFP reporter fluorescence is 0.0623 ± 0.001 in data set [1], 0.0748 ± 0.001 in data set [2] (ligand: 1 µM Pb) and 0.681 ± 0.087 in data set [2] (ligand: 30 µM Zn).

In the case of P30L, the sfGFP reporter fluorescence in data set [1] was determined as 0.0614 ± 0.00078; in data set [2] (ligand: 1 µM Pb), 0.0894 ± 0.0031; in data set [2] (ligand: 30 µM Zn) it was 0.901 ± 0.0029.

In the case of P30N, the figures for the sfGFP reporter fluorescence in data set [1], in data set [2] (ligand: 1 µM Pb) and in data set [2] (ligand: 30 µM Zn) were 0.0605 ± 0.0031, 0.0753 ± 0.0049 and 0.628 ± 0.07, respectively.

On to Y22F, for which the sfGFP reporter fluorescence in data set [1] was found to be 0.0629 ± 0.0029; in data set [2] (ligand: 1 µM Pb), 0.0662 ± 0.00078; in data set [2] (ligand: 30 µM Zn), 0.173 ± 0.0039.

Y22I: the sfGFP reporter fluorescence in data set [1] amounted to 0.0605 ± 0.0015; in data set [2] (ligand: 1 µM Pb), 0.0583 ± 0.0015; in data set [2] (ligand: 30 µM Zn), 0.0564 ± 0.0036.

With Y22G, the sfGFP reporter fluorescence in data set [1] came to 0.0594 ± 0.0031; in data set [2] (ligand: 1 µM Pb) it was 0.05846 ± 0.00026; in data set [2] (ligand: 30 µM Zn) it was 0.0605 ± 0.0015.

In the case of Y22W, the figures for the sfGFP reporter fluorescence in data set [1], in data set [2] (ligand: 1 µM Pb) and in data set [2] (ligand: 30 µM Zn) were 0.0658 ± 0.0029, 0.142 ± 0.00026 and 2.1 ± 0.13, respectively.

Consider Y22M, for which the sfGFP reporter fluorescence in data set [1] was 0.0638 ± 0.001; in data set [2] (ligand: 1 µM Pb), 0.0612 ± 0.0031; in data set [2] (ligand: 30 µM Zn), 0.064 ± 0.0013.

In the case of Y22N, the sfGFP reporter fluorescence in data set [1] came to 0.0619 ± 0.0031; in data set [2] (ligand: 1 µM Pb), 0.0607 ± 0.0029; in data set [2] (ligand: 30 µM Zn), 0.0614 ± 0.0023.

As for Y22D, the values for the sfGFP reporter fluorescence in data set [1], in data set [2] (ligand: 1 µM Pb) and in data set [2] (ligand: 30 µM Zn) were 0.06066 ± 0.00026, 0.0618 ± 0.0018 and 0.06011 ± 0.00052, respectively.

Take Y22H: the sfGFP reporter fluorescence was 0.063 ± 0.0015 in data set [1], 0.06249 ± 0.00026 in data set [2] (ligand: 1 µM Pb) and 0.0651 ± 0.0018 in data set [2] (ligand: 30 µM Zn).

Regarding Y22A, the sfGFP reporter fluorescence came out at 0.06029 ± 0.00026 in data set [1], 0.0557 ± 0.0021 in data set [2] (ligand: 1 µM Pb) and 0.0634 ± 0.001 in data set [2] (ligand: 30 µM Zn).

Y22P: the sfGFP reporter fluorescence turned out to be 0.0618 ± 0.0018 in data set [1], 0.06066 ± 0.00026 in data set [2] (ligand: 1 µM Pb) and 0.0621 ± 0.0023 in data set [2] (ligand: 30 µM Zn).

Y22L: the figures for the sfGFP reporter fluorescence in data set [1], in data set [2] (ligand: 1 µM Pb) and in data set [2] (ligand: 30 µM Zn) were 0.0614 ± 0.00078, 0.0597 ± 0.0015 and 0.07183 ± 0.00052, respectively.

Turning to Y22T, the sfGFP reporter fluorescence was determined as 0.05937 ± 0.00052 in data set [1], 0.06084 ± 0.00052 in data set [2] (ligand: 1 µM Pb) and 0.06121 ± 0.00052 in data set [2] (ligand: 30 µM Zn).

With Y22V, the values for the sfGFP reporter fluorescence in data set [1], in data set [2] (ligand: 1 µM Pb) and in data set [2] (ligand: 30 µM Zn) were 0.06359 ± 0.00026, 0.0614 ± 0.00078 and 0.0641 ± 0.0021, respectively.

With Y22Q, the sfGFP reporter fluorescence in data set [1] was determined as 0.0627 ± 0.001; in data set [2] (ligand: 1 µM Pb), 0.0612; in data set [2] (ligand: 30 µM Zn), 0.0607 ± 0.0023.

Take Y22E: the sfGFP reporter fluorescence in data set [1] was found to be 0.06157 ± 0.00052; in data set [2] (ligand: 1 µM Pb) it was 0.0621 ± 0.0013; in data set [2] (ligand: 30 µM Zn) it was 0.06011 ± 0.00052.

Y22K: the sfGFP reporter fluorescence is 0.0625 ± 0.0018 in data set [1], 0.0627 ± 0.001 in data set [2] (ligand: 1 µM Pb) and 0.0614 ± 0.0029 in data set [2] (ligand: 30 µM Zn).

Regarding Y22C, the sfGFP reporter fluorescence came out at 0.0614 ± 0.0044 in data set [1], 0.0623 ± 0.00052 in data set [2] (ligand: 1 µM Pb) and 0.05919 ± 0.00026 in data set [2] (ligand: 30 µM Zn).

With Y22S, the figures for the sfGFP reporter fluorescence in data set [1], in data set [2] (ligand: 1 µM Pb) and in data set [2] (ligand: 30 µM Zn) were 0.0636 ± 0.0013, 0.06084 ± 0.00052 and 0.0619 ± 0.001, respectively.

Y22R: the sfGFP reporter fluorescence came out at 0.0678 ± 0.00052 in data set [1], 0.06579 ± 0.00026 in data set [2] (ligand: 1 µM Pb) and 0.0689 ± 0.0031 in data set [2] (ligand: 30 µM Zn).

Turning to L27H, the sfGFP reporter fluorescence in data set [1] is 0.0623 ± 0.0015; in data set [2] (ligand: 1 µM Pb), 0.06322 ± 0.00026; in data set [2] (ligand: 30 µM Zn), 0.0762 ± 0.001.

For L27Q, the sfGFP reporter fluorescence in data set [1] amounted to 0.06432 ± 0.00026; in data set [2] (ligand: 1 µM Pb), 0.0618 ± 0.0013; in data set [2] (ligand: 30 µM Zn) it was 0.06285 ± 0.00026.

As for L27F, the values for the sfGFP reporter fluorescence in data set [1], in data set [2] (ligand: 1 µM Pb) and in data set [2] (ligand: 30 µM Zn) were 0.0673 ± 0.0023, 0.104 ± 0.0029 and 0.493 ± 0.035, respectively.

On to L27C, for which the sfGFP reporter fluorescence in data set [1] was 0.06285 ± 0.00026; in data set [2] (ligand: 1 µM Pb) it was 0.0641 ± 0.001; in data set [2] (ligand: 30 µM Zn), 0.142 ± 0.0023.

Turning to L27V, the sfGFP reporter fluorescence in data set [1] worked out at 0.0625 ± 0.00078; in data set [2] (ligand: 1 µM Pb), 0.0717 ± 0.00078; in data set [2] (ligand: 30 µM Zn), 0.349 ± 0.0044.

In the case of L27M, the sfGFP reporter fluorescence in data set [1] came out at 0.0643 ± 0.0018; in data set [2] (ligand: 1 µM Pb), 0.0971 ± 0.0036; in data set [2] (ligand: 30 µM Zn), 0.743 ± 0.04.

For the origin of these results see the supplement of paper PMC12783771.
